Laboratory results published in patent US20170114100A1 (ALBERT EINSTEIN COLLEGE OF MEDICINE, published 2017).

Target: the molecule itself
Test: SEC dimerization assay (FIG. 4A)

B1: BAX 4MA (C62S, C126S, V121C, I136C), internally cross-linked mutant (other)
chain: MDGSGEQPRGGGPTSSEQIMKTGALLLQGFIQDRAGRMGGEAPELALDPVPQDASTKKLSESLKRIGDELDSNMELQRMIAAVDTDSPREVFFRVAADMFSDGNFNWGRVVALFYFASKLCLKALSTKVPELIRTCMGWTLDFLRERLLGWIQDQGGWDGLLSYFGTPTWQTVTIFVAGVLTASLTIWKKMG
modifications: internal cross-link between the introduced cysteines (V121C, I136C), reduced by DTT
notes: also called BAX 4MA dimer; 4MA monomer
binding result: binds
